# Like-named read-outs stand apart in the source and are kept apart here.
# Key:
# Aβ1-42 = molecular target: T1, Aβ1-42 (Homo sapiens, UniProt P05067); experiment: ThT aggregation kinetics of Aβ1-42 (Example 4); assay type: biochemical
# T1 construct: made in house; host or cells: E. coli
# Excerpt: Aβ1-40 (SEQ ID NO: 11) and Aβ1-42 (SEQ ID NO: 12) were expressed in E. coli from synthetic genes and purified in batch format using ion exchange and size exclusion steps as described in Walsh et al., FEBS J. 2009, 276, 1266-1281, which results in highly pure monomeric peptide. Purified peptide was divided into 20-30 identical aliquots and frozen. Monomer was then isolated by gel filtration of an aliquot of purified peptide just prior to setting up each of the experiments listed below to remove traces of aggregate formed during freezing and thawing and to exchange buffer to the one used in the respective experiment. Monomer was collected in low-bind Ep-tubes ([…]) on ice, and the concentration was determined by absorbance or amino acid analysis after acid hydrolysis. The monomer was used as is or diluted to the desired concentration for the respective experiment. Bri2(90-236) (SEQ ID NO: 2) was expressed and purified as described in Example 1. Aggregation kinetics were studied by recording the Thioflavin T (ThT) fluorescence intensity as a function of time in a plate reader (FluoStar Omega from BMG Labtech, Offenberg, Germany). The fluorescence was recorded using bottom optics in half-area 96-well PEG-coated black polystyrene plates with clear bottom (Corning 3881) using 440 nm excitation filter and 480 nm emission filter. Aβ monomer was isolated by gel filtration as above in 20 mM Na-phosphate, 200 μM EDTA, 0.02% NaN3 (at pH 7.4 in the case of Aβ1-40 and at pH 8.0 for Aβ1-42) and diluted to 6 or 8 μM in the case of Aβ1-40 and 3 μM in the case of Aβ1-42 in the same buffer and supplemented with 20 μM ThT from a 2 mM stock. To each well in the 96-well plate was first added either 10 μl buffer (20 mM Tris/HCl pH 7.4) or 10 μl of Bri2(90-236) protein or control protein at ten times the desired final concentration in 20 mM Tris/HCl pH 7.4. To each well was then added 90 μl of the ice-cold Aβ monomer solution, and the plate was immediately placed in the plate reader at 37° C., with fluorescence read every 6 minutes with continuous shaking at 100 rpm between readings. […]
# Aβ1-40 [1] = molecular target: T2, Aβ1-40 (Homo sapiens, UniProt P05067); assay type: biochemical
# T2 construct: made in house; host or cells: E. coli
# T2 sequence (P05067 672-711): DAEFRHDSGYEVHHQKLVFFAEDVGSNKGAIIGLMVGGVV
# Excerpt: Aβ1-40 (SEQ ID NO: 11) and Aβ1-42 (SEQ ID NO: 12) were expressed in E. coli from synthetic genes and purified in batch format using ion exchange and size exclusion steps as described in Walsh et al., FEBS J. 2009, 276, 1266-1281, which results in highly pure monomeric peptide. Purified peptide was divided into 20-30 identical aliquots and frozen. Monomer was then isolated by gel filtration of an aliquot of purified peptide just prior to setting up each of the experiments listed below to remove traces of aggregate formed during freezing and thawing and to exchange buffer to the one used in the respective experiment. Monomer was collected in low-bind Ep-tubes ([…]) on ice, and the concentration was determined by absorbance or amino acid analysis after acid hydrolysis. The monomer was used as is or diluted to the desired concentration for the respective experiment. Bri2(90-236) (SEQ ID NO: 2) was expressed and purified as described in Example 1. Aggregation kinetics were studied by recording the Thioflavin T (ThT) fluorescence intensity as a function of time in a plate reader (FluoStar Omega from BMG Labtech, Offenberg, Germany). The fluorescence was recorded using bottom optics in half-area 96-well PEG-coated black polystyrene plates with clear bottom (Corning 3881) using 440 nm excitation filter and 480 nm emission filter. Aβ monomer was isolated by gel filtration as above in 20 mM Na-phosphate, 200 μM EDTA, 0.02% NaN3 (at pH 7.4 in the case of Aβ1-40 and at pH 8.0 for Aβ1-42) and diluted to 6 or 8 μM in the case of Aβ1-40 and 3 μM in the case of Aβ1-42 in the same buffer and supplemented with 20 μM ThT from a 2 mM stock. To each well in the 96-well plate was first added either 10 μl buffer (20 mM Tris/HCl pH 7.4) or 10 μl of Bri2(90-236) protein or control protein at ten times the desired final concentration in 20 mM Tris/HCl pH 7.4. To each well was then added 90 μl of the ice-cold Aβ monomer solution, and the plate was immediately placed in the plate reader at 37° C., with fluorescence read every 6 minutes with continuous shaking at 100 rpm between readings. Aβ1-40 was studied alone or with Bri2(90-236) at a concentration ranging from 60 nM to 6 μM. Aβ1-42 was studied alone or with Bri2(90-236) at a concentration ranging from 20 nM to 6 μM.
# Aβ1-40 [2] = molecular target: T2, Aβ1-40; experiment: ThT aggregation of Aβ1-40, Bri2(90-236) added at different time points; assay type: biochemical
# Protocol: Aggregation of 8 μM Aβ1-40 was monitored by recording the ThT fluorescence intensity as a function of time in 20 mM Na-phosphate, 200 μM EDTA, 20 μM ThT, 0.02% NaN3, 37° C. with 100 rpm shaking. 800 nM Bri2(90-236) was added from a concentrated stock before the start of the experiment or at different time points after starting the experiment ranging from 0.3 to 11.2 hours.
# Aβ1-40 [3] = molecular target: T2, Aβ1-40; experiment: ESI-MS binding of Bri2(90-236) to Aβ1-40
# Protocol: Prior to electrospray ionization mass spectrometry (ESI-MS), purified Bri2(90-236) (SEQ ID NO: 2) was rebuffered into 10 mM ammonium acetate, pH 7.0, using spin columns with a 3 kDa cut-off limit (Nanosep, Pall Corp., East Hills, N.Y., USA). Protein and peptides were mixed at 22° C. directly before analysis at a final protein concentration of 20 μM and a final peptide concentration of 50 μM. Data was acquired using a QTOF Ultima API mass spectrometer (Waters, Milford, Mass., USA) equipped with a Z-spray source operated in the positive-ion mode. Samples were introduced via nano-electrospray using metal-plated borosilicate glass capillary needles (Proxeon, Denmark). The source temperature was 80° C., the capillary voltage 1.7 kV, and the cone and RF lens 1 potentials were 100 and 38 V, respectively. […]
# ESI-MS binding experiments were conducted to investigate whether Bri2(90-236) can bind the peptides ABri23 and Aβ1-40. For this purpose, Bri2(90-236) was mixed with ABri23, Aβ1-40, or an equimolar mixture of ABri23 and Aβ1-40, to a final concentration of 20 μM Bri2(90-236) and 50 μM of each peptide, and analyzed by ESI-MS. Mass spectra were recorded to investigate the presence and stoichiometry of protein-peptide complexes in the gas phase.
# T1 sequence (P05067 672-713): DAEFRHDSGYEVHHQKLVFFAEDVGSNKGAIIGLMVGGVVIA
molecule,measurement,setting,value
"Bri2(90-236): recombinant protein of residues 90-236 of human Bri2 (SEQ ID NO: 2), encompassing the Brichos domain, expressed in E. coli (protein, listed as Homo sapiens) GIKYIKDDVILNEPSADAPAALYQTIEENIKIFEEEEVEFISVPVPEFADSDPANIVHDFNKKLTAYLDLNLDKCYVIPLNTSIVMPPRNLLELLINIKAGTYLPQSYLIHEHMVITDRIENIDHLGFFIYRLCHDKETYKLQRRET",lag time of Aβ1-42 aggregation,"Aβ1-42; 3 μM Aβ1-42, molar ratio of 0.1 (1 Bri2(90-236) per 10 Aβ1-42), compared to the undisturbed case",doubled
same,half time of Aβ1-42 aggregation,"Aβ1-42; 3 μM Aβ1-42, molar ratio of 0.1, compared to the undisturbed case",doubled
same,prolongation of half time of Aβ1-40 aggregation,"Aβ1-40 [1]; 170 nM Bri2(90-236), relative to 6 μM Aβ1-40 alone",approximately 4.5 times
same,lag time of Aβ1-40 aggregation,"Aβ1-40 [1]; 0.01 or 0.03 molar equivalents of Bri2(90-236), far below equimolar",increases extensively
same,lag time of Aβ1-40 aggregation,Aβ1-40 [1]; above a molar ratio of 0.1 (1 Bri2(90-236) per 10 Aβ1-40 molecules),exceeds one week
same,elongation rate of Aβ1-40 aggregation,Aβ1-40 [1]; in the presence of Bri2(90-236),largely unaffected
same,effect on Aβ1-40 aggregation process,"Aβ1-40 [2]; 8 μM Aβ1-40, 800 nM Bri2(90-236) added anywhere during the lag time",can be delayed
same,effect on Aβ1-40 aggregation process,"Aβ1-40 [2]; 8 μM Aβ1-40, 800 nM Bri2(90-236) added at the end of the transition",no effect is seen
same,effect on Aβ1-40 aggregation process,"Aβ1-40 [2]; 8 μM Aβ1-40, 800 nM Bri2(90-236) added close to the mid point of the transition",reduce its speed and progress at lower rate
same,effect on Aβ1-40 aggregation process,"Aβ1-40 [2]; 8 μM Aβ1-40, 800 nM Bri2(90-236) added during the early part of the sigmoidal transition",appears to halt with no further growth of the ThT positive aggregates
same,Bri2(90-236)/Aβ1-40 complex in competition experiment,Aβ1-40 [3]; 20 μM Bri2(90-236) with 50 μM Aβ1-40 and 50 μM ABri23 (equimolar),only minor signals
same,amount of Bri2(90-236)/Aβ1-40 complexes observed,"Aβ1-40 [3]; 20 μM Bri2(90-236), 50 μM freshly dissolved Aβ1-40 (2.5 fold excess)",Only small amounts

# — patent US8785391B2, “Compound and method for treatment of alzheimer's disease and familial dementia” (Alphabeta AB, priority 2010, dated 2014)
